# Source: article PMC3936774
# Key:
# Experiment in all cases: fluorescence polarization
# Ec Hfq K31W = Ec Hfq K31W (Escherichia coli, UniProt P0A6X3 1-102, K31W)
# Hfq WT = Hfq WT (Escherichia coli, UniProt P0A6X3 1-102)
# Sa Hfq F25W = Sa Hfq F25W (Staphylococcus aureus, UniProt A0A0H3JV59 1-77, F25W)
# Sa Hfq Q31W = Sa Hfq Q31W (Staphylococcus aureus, UniProt A0A0H3JV59 1-77, Q31W)
# Ec Hfq F11W = Ec Hfq F11W (Escherichia coli, UniProt P0A6X3 1-102, F11W)
# Ec Hfq F39W = Ec Hfq F39W (Escherichia coli, UniProt P0A6X3 1-102, F39W)
# Ec Hfq Y25W = Ec Hfq Y25W (Escherichia coli, UniProt P0A6X3 1-102, Y25W)
# Ec Hfq G77W = Ec Hfq G77W (Escherichia coli, UniProt P0A6X3 1-102, G77W)
# Ec Hfq Q33W = Ec Hfq Q33W (Escherichia coli, UniProt P0A6X3 1-102, Q33W)
# Ec Hfq Q95W = Ec Hfq Q95W (Escherichia coli, UniProt P0A6X3 1-102, Q95W)
# Ec Hfq R17W = Ec Hfq R17W (Escherichia coli, UniProt P0A6X3 1-102, R17W)
# Ec Hfq Y83W = Ec Hfq Y83W (Escherichia coli, UniProt P0A6X3 1-102, Y83W)
# Sa Hfq WT = Sa Hfq WT (Staphylococcus aureus, UniProt A0A0H3JV59 1-77)
binder,measurement,setting,value
UUUUUU (ssRNA) [U6 (fluorescein)],Kd,Ec Hfq K31W,1120 ± 73 nM
same,Kd,Hfq WT,766 ± 73.7 nM
same,Kd,Sa Hfq F25W,41.9 ± 25.1 nM
same,Kd,Sa Hfq Q31W,114 ± 23.2 nM
same,Kd,Ec Hfq F11W,503 ± 55.5 nM
same,Kd,Ec Hfq F39W,2000 ± 400 nM
same,Kd,Ec Hfq Y25W,837 ± 62.5 nM
same,Kd,Ec Hfq G77W,380 ± 93.2 nM
same,Kd,Ec Hfq Q33W,405 ± 182 nM
same,Kd,Ec Hfq Q95W,848 ± 289 nM
same,Kd,Ec Hfq R17W,1600 ± 80 nM
same,Kd,Ec Hfq Y83W,778 ± 254 nM
same,binding result,Sa Hfq WT,binds
